Experimental data reported in article PMC6471365 (Pathogens, 2019).

Experiments:
[1] = target: Recombinant SSL1 of S. aureus strain MW2 (allele type 1) (Staphylococcus aureus strain MW2)
[2] = target: Recombinant SSL1 of S. aureus ocular isolate 295.236 (allele type 2) (Staphylococcus aureus isolate 295.236)
[3] = target: Recombinant SSL1 of S. aureus strain Newman (allele type 3) with a C-terminal 6-His tag (Staphylococcus aureus strain Newman)
[4] = target: the molecule itself; assay: gelatin zymography with SDS compared with reduced, denaturing SDS-PAGE

## Recombinant SSL1 of S. aureus strain MW2 (allele type 1) (from UniProt A0A0H3KAV3 31-226) (natural protein)
[1]
  stoichiometry N: 2

## Recombinant SSL1 of S. aureus ocular isolate 295.236 (allele type 2) (from UniProt A0A0H3KAV3 31-226) (natural protein)
[2]
  stoichiometry N: 2

## Recombinant SSL1 of S. aureus strain Newman (allele type 3) with a C-terminal 6-His tag (from UniProt A0A0H3KAV3 31-226) (natural protein)
[3]
  stoichiometry N: 2

B1: Staphylococcus aureus superantigen-like protein SSL1 of strain Newman, native secreted protein (natural protein)
chain: KAEVKQQSESELKHYYNKPILERKNVTGFKYTDEGKHYLEVTVGQQHSRITLLGSDKDKFKDGENSNIDVFILREGDSRQATNYSIGGVTKSNSVQYIDYINTPILEIKKDNEDVLKDFYYISKEDISLKELDYRLRERAIKQHGLYSNGLKQGQITITMNDGTTHTIDLSQKLEKERMGESIDGTKINKILVEMK
notes: also called the toxin; the protease
[4]
  stoichiometry N: 2
